Measured values from patent publication US20200317768A1 (published 2020).

T1: Cynomolgus monkey latent myostatin (cynomolgus monkey, UniProt Q95J86 25-266; Q95J86 267-375)
T1 construct: Latent form = complex of two propeptides and the mature dimer; also called Cyno latent myostatin
T1 sequence 1: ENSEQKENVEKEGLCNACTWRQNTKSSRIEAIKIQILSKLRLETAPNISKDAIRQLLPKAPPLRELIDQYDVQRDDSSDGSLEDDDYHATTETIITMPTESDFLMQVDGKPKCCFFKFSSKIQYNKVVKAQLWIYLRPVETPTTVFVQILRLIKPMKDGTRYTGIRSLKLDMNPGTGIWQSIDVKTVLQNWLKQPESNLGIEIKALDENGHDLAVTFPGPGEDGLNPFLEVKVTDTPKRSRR
T1 sequence 2: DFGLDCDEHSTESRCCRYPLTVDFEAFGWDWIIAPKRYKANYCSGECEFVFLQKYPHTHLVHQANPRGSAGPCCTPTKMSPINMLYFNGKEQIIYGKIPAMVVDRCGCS

T2: Mouse latent myostatin (mouse, UniProt O08689 26-267; O08689 268-376)
T2 construct: Latent form = complex of two propeptides and the mature dimer
T2 sequence 1: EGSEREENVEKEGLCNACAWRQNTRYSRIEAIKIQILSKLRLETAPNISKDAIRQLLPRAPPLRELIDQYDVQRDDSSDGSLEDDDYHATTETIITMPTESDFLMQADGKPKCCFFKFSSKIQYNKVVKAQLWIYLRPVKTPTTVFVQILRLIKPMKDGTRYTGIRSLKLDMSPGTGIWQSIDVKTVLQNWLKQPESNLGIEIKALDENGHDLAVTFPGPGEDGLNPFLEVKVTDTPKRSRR
T2 sequence 2: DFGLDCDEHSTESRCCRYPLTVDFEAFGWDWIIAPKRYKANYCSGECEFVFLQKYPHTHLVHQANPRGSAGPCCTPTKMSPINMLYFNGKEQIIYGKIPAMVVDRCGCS

T3: Human latent myostatin (human, UniProt O14793 25-266; O14793 267-375)
T3 construct: also called human myostatin latent form
T3 sequence 1: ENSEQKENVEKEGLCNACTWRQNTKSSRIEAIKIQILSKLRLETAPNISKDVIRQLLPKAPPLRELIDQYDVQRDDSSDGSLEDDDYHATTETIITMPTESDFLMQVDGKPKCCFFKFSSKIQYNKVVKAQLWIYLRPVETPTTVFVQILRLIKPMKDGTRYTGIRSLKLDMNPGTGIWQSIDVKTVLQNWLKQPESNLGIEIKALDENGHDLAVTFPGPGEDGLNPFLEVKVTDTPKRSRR
T3 sequence 2: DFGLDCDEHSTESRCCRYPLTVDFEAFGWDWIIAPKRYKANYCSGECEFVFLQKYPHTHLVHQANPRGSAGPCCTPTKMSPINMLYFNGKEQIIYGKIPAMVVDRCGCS

T4: cynomolgus monkey FcγRIIIaS extracellular domain, C-terminal His-tag (cynomolgus monkey, UniProt Q8SPW2 21-206 at identity 1.00))
T4 construct: also called cyno FcγRIIIaS; FcgRIIIaS
T4 chain: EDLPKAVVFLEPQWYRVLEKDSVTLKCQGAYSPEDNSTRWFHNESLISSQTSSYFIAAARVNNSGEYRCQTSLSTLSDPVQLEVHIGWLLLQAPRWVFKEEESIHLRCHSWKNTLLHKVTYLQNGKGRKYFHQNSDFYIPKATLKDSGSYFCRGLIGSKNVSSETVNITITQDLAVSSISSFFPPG

T5: human FcγRIIaH extracellular domain, C-terminal His-tag (human, UniProt P12318 34-217)
T5 construct: also called human FcγRIIa (type H); FcgRIIaH
T5 sequence: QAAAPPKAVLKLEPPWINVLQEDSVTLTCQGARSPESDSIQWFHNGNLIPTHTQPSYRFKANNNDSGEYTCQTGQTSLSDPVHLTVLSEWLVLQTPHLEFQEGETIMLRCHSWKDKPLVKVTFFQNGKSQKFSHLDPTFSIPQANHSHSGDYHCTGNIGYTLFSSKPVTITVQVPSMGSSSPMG


Assays:
[1] = molecular target: T1, Cynomolgus monkey latent myostatin; experiment: SPR (BIACORE T200) 37C, pH 5.8, antibody captured by ProA/G
Procedure: (§1) ProA/G (Pierce) was immobilized onto all flow cells of a CM4 chip using an amine coupling kit (GE Healthcare). All antibodies and analytes were prepared in ACES pH7.4 or pH5.8 buffer containing 20 mM ACES, 150 mM NaCl, 1.2 mM CaCl₂, 0.05% TWEEN®) 20, 0.005% NaN₃. […] Human, cyno, and mouse latent myostatin was injected at 3.125 to 50 nM prepared by two-fold serial dilution, followed by dissociation. The sensor surface was regenerated each cycle with 10 mM Glycine HCl pH1.5. Binding affinity was determined by processing and fitting the data to a 1:1 binding model using BIACORE® T200 Evaluation software, version 2.0 (GE Healthcare).

Mouse latent myostatin = molecular target: T2, Mouse latent myostatin; experiment: as above
Procedure: as §1

Human latent myostatin = molecular target: T3, Human latent myostatin; experiment: as above
Procedure: as §1

[2] = molecular target: T4, cynomolgus monkey FcγRIIIaS …; experiment: SPR (BIACORE) 25C, antibody captured, FcgR as analyte; weak binding, KD by Equation 2
Procedure: (§2) The kinetic analysis of interactions between these antibodies and FcγR was carried out using BIACORE® T200 or BIACORE® 4000 (GE Healthcare). HBS-EP+ (GE Healthcare) was used as the running buffer, and the measurement temperature was set to 25° C. A chip produced by immobilizing Protein A. Protein A/G or mouse anti-human IgG kappa light chain (BD Biosciences) onto a Series S Sensor Chip CM4 or CM5 (GE Healthcare) by the amine-coupling method was used. […] After the measurement, the antibody captured on the chip was washed off by allowing reaction with 10 mM glycine-HCl, pH1.5 and 25 mM NaOH so that the chip was regenerated and used repeatedly. The sensorgrams obtained as measurement results were analyzed by the 1:1 Langmuir binding model using the BIACORE® Evaluation Software to calculate the binding rate constant ka (L/mol/s) and dissociation rate constant kd (l/s), and the dissociation constant KD (mol/L) was calculated from these values. […] Regarding such interactions, KD values were calculated using the following 1:1 binding model described in BIACORE® T100 Software Handbook BR1006-48 Edition AE.
(§3) The behavior of interacting molecules according to the 1:1 binding model on BIACORE® can be described by Equation 1: Req=C·R max/(KD+C)+RI, wherein, Req is a plot of steady-state binding levels to analyte concentration. […]

[3] = molecular target: T5, human FcγRIIaH extracellular domain, …; experiment: as above
Procedure: as §2, §3

| Kd [1] | Kd (Mouse latent myostatin) | Kd (Human latent myostatin) | Kd [2] | Kd [3] | Binder |
| --- | --- | --- | --- | --- | --- |
| 25.9 nM | 22.6 nM | 34 nM | – | – | MS_M103205H795-SG1/M103202L889-SK1 (antibody, human IgG1, kappa, also called MS1032LO06-SG1) heavy: not shown light: DIVMTQSPATLSLSPGERATLSCTSSQSVYHANWLSWFQQKPGQPPKLLIYWASTLAYGVPSRFSGSGSGTDFTLTISSLQPEDAATYYCAGGYGGGRYAFGQGTKVEIKRTVAAPSVFIFPPSDEQLKSGTASVVCLLNNFYPREAKVQWKVDNALQSGNSQESVTEQDSKDSTYSLSSTLTLSKADYEKHKVYACEVTHQGLSSPVTKSFNRGEC |
| – | – | – | 100000 nM | 75000 nM | M103205H795-MY009/M103202L889-SK1 (antibody, human IgG1, kappa, CH MY009 = SG1 with P238D (EU numbering); also called MS1032LO06-MY009) heavy: not shown light: DIVMTQSPATLSLSPGERATLSCTSSQSVYHANWLSWFQQKPGQPPKLLIYWASTLAYGVPSRFSGSGSGTDFTLTISSLQPEDAATYYCAGGYGGGRYAFGQGTKVEIKRTVAAPSVFIFPPSDEQLKSGTASVVCLLNNFYPREAKVQWKVDNALQSGNSQESVTEQDSKDSTYSLSSTLTLSKADYEKHKVYACEVTHQGLSSPVTKSFNRGEC |
